Entries after “also recorded” stand apart in the source; their conditions may differ.
Experiments:
[1] = test system: OTII (CD4+) T cells in unfractionated splenocytes; test: Antigen presentation assay, unfractionated OTII splenocytes, [3H]thymidine T cell proliferation; type: cell-based, mouse
Protocol: FIG. 2B is a graph showing that oligosaccharide modification of OVA elicits stronger presentation to OTII T cells than unmodified OVA. Unfractionated OTII splenocytes (3×10^5/well) were incubated with graded doses of OVA or oligosaccharide-modified OVA for eighty-four hours with [^3H]thymidine (1 μCi) added for the last 12 hours. Thereafter [^3H]thymidine incorporation levels were measured and plotted. FIG. 2C is a graph showing that observed enhancements in antigen presentation of (OVA)-3-1 to T cells is carbohydrate dependent. Splenocytes were incubated with antigen as in (B)±(BSA)-3-1 (10 μg mL^−1). In cases where (OVA)-3-1 was added to OVA wells to assess the possibility of direct activation of T cells (see text), (OVA)-3-1 was present at 50 ng mL^−1; incubations were performed for seventy-two hours with [^3H]thymidine (1 μCi) added for the last 12 hours. FIG. 2D is a graph showing that the receptor mediated uptake of (OVA)-3-1 has a different binding profile than that observed for DC-SIGN. Unfractionated splenocytes were incubated with OVA or (OVA)-3-1±mBSA or Lewis^x-BSA (each at 100 μg mL^−1). Incubations were performed for seventy-two hours with [^3H]thymidine (1 μCi) added for the last twelve hours. All values reported are the mean of triplicate measurements.
The ability of these conjugates to enhance antigen uptake by dendritic cells was assessed in comparison to unmodified OVA by incubating graded doses of conjugate and OVA with unfractionated splenocytes (containing T cells, B cells, dendritic cells, macrophages) isolated from OTII (CD4^+) transgenic mice. The ability of dendritic cells to present antigenic peptides derived from targeted proteins was measured as a function of T cell proliferation in response to those presented peptides. T cell proliferation is quantified by [^3H]thymidine incorporation during cellular division.
Pooled inguinal lymph nodes were dissociated in 10% Fetal Bovine Serum RPMI (supplemented with 2 mM L-glutamine) and either mechanically dissociated between two glass slides or, to improve the overall cell yield, incubated in the presence of collagenase (Boehringer) and EDTA for 25 minutes at 37° C./5% CO2 to dissociate DC-T cell clusters. For antigen presentation assays with whole splenocytes, isolated spleens were injected with collagenase/EDTA, gently teased apart and incubated as described above. Splenocytes were cultured in 96-well round-bottom plates at a density of 3×10^5 cells/0.2 mL. In antigen presentation assays utilizing purified dendritic cells and T cells, dendritic cells were isolated from the spleens of C57BL/6 mice following collagenase/EDTA treatment by labeling the dendritic cells with commercially available magnetic microbeads linked to an anti-CD11c^+ antibody (Miltenyi Biotec, Bergisch Gladbach, Germany) (according to the Miltenyi Biotec protocol) and separating labeled Dendritic cells from non-dendritic cells by application of a magnetic field. Similarly, purified […] T cells were obtained from spleens of OTII transgenic mice using magnetic beads Dynal (Oslo, Norway). Purified dendritic cells and T cells were seeded onto 96-well plates round-bottom Plates at a 1:2 DC:T cell ratio unless stated otherwise in the Figures.

langerin = langerin (Homo sapiens, UniProt Q9UJ71); details: solid-phase binding studies; cited from earlier work
B cells and macrophages = test: Antigen presentation with B cells and macrophages (non-dendritic cells) as antigen-presenting cells; type: cell-based, mouse; details: in place of purified dendritic cells
Protocol: (§1) FIGS. 4A, 4B, 4C and 4D are graphs showing that CD11c^+ dendritic cells are the main antigen presenting cells presenting 3-1-targeted antigen. […] 1.5×10^4 Splenic CD11c^+ dendritic cells purified from C57BL/6 mice and 3.0×10^4 purified OTII T cells were incubated with OVA (starting concentration 300 μg mL^−1) or (OVA)-3-1 (starting concentration 25 μg mL^−1) in graded doses for eight-four hours with [^3H]thymidine (1 μCi) added for the last twelve hours. […] Purified CD11c^+ dendritic cells and OTII T cells were incubated with (OVA)-3-1 (25 μg mL^−1)±each potential inhibitor (100 μg mL^−1). T cell proliferation was determined as for FIG. 4A. […] CD11c^+ dendritic cells and OTII T cells were incubated with OVA or (OVA)-3-1±lipopolysaccharide ([…]). Also included are all ‘non-dendritic cells’ (macrophages and B cells) obtained during the purification of the dendritic cells. T cell proliferation was determined as described in FIG. 4A. […] Supernatants from cells described in FIG. 4C were collected at forty-eight and seventy-two hours and measured for IFN-γ by ELISA; the values presented are from the seventy-two hour time point. All measurements here were performed in triplicate. […]

IFN-γ = IFN-γ ELISA of supernatants from purified dendritic cell/OTII T cell assay; type: cell-based, mouse; details: average; 72 h supernatants
Protocol: as §1, with “point.” for “point. All measurements here were performed in triplicate.”
75-150 μL aliquots of supernatant were sampled from antigen presentation assays at 24, 48, and 72 hours. […] 25 μL of each supernatant were diluted 1:1 with PBS/1% BSA and analyzed in triplicate for IFN-γ, IL-10, and IL-4 using DuoSet ELISA reagents from R&D Systems. […]

langerin, sequence (Q9UJ71 whole entry, species assumed): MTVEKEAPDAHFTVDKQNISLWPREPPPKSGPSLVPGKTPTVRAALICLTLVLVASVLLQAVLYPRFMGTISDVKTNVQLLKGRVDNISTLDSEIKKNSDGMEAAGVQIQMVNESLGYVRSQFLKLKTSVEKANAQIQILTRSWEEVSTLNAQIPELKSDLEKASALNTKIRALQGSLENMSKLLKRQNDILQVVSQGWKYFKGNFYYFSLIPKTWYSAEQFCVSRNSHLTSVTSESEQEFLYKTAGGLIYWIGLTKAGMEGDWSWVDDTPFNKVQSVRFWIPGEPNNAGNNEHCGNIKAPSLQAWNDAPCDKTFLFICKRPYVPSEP

## mBSA: BSA modified with approximately 25 mannose residues per protein molecule [reference compound]
[1]; OTII splenocytes, mBSA or Lewis^x-BSA each at 100 μg mL^−1
  inhibition of uptake and presentation of (OVA)-3-1 to OTII T cells: Neither mBSA nor Lewis^x-BSA significantly impair; also recorded: did not significantly effect presentation
langerin
  binding by langerin: bound by langerin

B1: (OVA)-3-1: ovalbumin modified via SMCC with nonasaccharide 3-1, average of three saccharides per OVA (conjugate)
chain: GSIGAASMEFCFDVFKELKVHHANENIFYCPIAIMSALAMVYLGAKDSTRTQINKVVRFDKLPGFGDSIEAQCGTSVNVHSSLRDILNQITKPNDVYSFSLASRLYAEERYPILPEYLQCVKELYRGGLEPINFQTAADQARELINSWVESQTNGIIRNVLQPSSVDSQTAMVLVNAIVFKGLWEKAFKDEDTQAMPFRVTEQESKPVQMMYQIGLFRVASMASEKMKILELPFASGTMSMLVLLPDEVSGLEQLESIINFEKLTEWTSSNVMEERKIKVYLPRMKMEEKYNLTSVLMAMGITDVFSSSANLSGISSAESLKISQAVHAAHAEINEAGREVVGSAEAGVDAASVSEEFRADHPFLFCIKHIATNAVLFFGRCVSP
[1]; 0.05 μg mL^−1 (OVA)-3-1 added to graded doses of OVA
  T cell response curve of OVA plus (OVA)-3-1 versus OVA alone (direct activation of T cells): identical
[1]; OTII splenocytes, graded doses
  enhancement of antigen uptake and presentation to T cells (T cell proliferation) compared to unmodified OVA: greatest enhancement
B cells and macrophages
  T cell responses with B cells and macrophages as antigen-presenting cells: negligible

B2: ovalbumin (protein, UniProt P01012 2-386, looked up)
Ovalbumin: GSIGAASMEFCFDVFKELKVHHANENIFYCPIAIMSALAMVYLGAKDSTRTQINKVVRFDKLPGFGDSIEAQCGTSVNVHSSLRDILNQITKPNDVYSFSLASRLYAEERYPILPEYLQCVKELYRGGLEPINFQTAADQARELINSWVESQTNGIIRNVLQPSSVDSQTAMVLVNAIVFKGLWEKAFKDEDTQAMPFRVTEQESKPVQMMYQIGLFRVASMASEKMKILELPFASGTMSMLVLLPDEVSGLEQLESIINFEKLTEWTSSNVMEERKIKVYLPRMKMEEKYNLTSVLMAMGITDVFSSSANLSGISSAESLKISQAVHAAHAEINEAGREVVGSAEAGVDAASVSEEFRADHPFLFCIKHIATNAVLFFGRCVSP
notes: model antigen, unmodified
IFN-γ
  less IFN-γ produced by T cells responding to OVA than to (OVA)-3-1: 40%

Reference: US8273357B2, “Antigen-carbohydrate conjugates” (Massachusetts Institute of Technology, priority 2004, dated 2012)
